Reference: patent US20260062487A1

Experiments:
[1] = molecular target: HLA-A*01:01 with … (ERGIC3) from cells (human); test: IP-MS, K562-A*01:01 lysate
[2] = molecular target: HLA-A*01:01 with … (RBM4) from cells (human); test: IP-MS, K562-A*01:01 lysate
[3] = molecular target: HLA-A*01:01 with … (UBR2) from cells (human); test: IP-MS, K562-A*01:01 lysate
[4] = molecular target: off-target HLA-A*01:01_… (PTS) on cells (human); test: IP-MS, K562-A*01:01 lysate
[5] = molecular target: HLA-A*01:01 with … (DSG3) from cells (human); test: IP-MS, NCI-H1703 lysate, Rep1
[6] = molecular target: HLA-A*01:01 with … (DSG4) from cells (human); test: IP-MS, NCI-H1703 lysate, Rep1
[7] = molecular target: HLA-A*01:01 with … (ERGIC3) from cells (human); test: IP-MS, NCI-H1703 lysate, Rep1
[8] = molecular target: HLA-A*01:01 with … (RBM4) from cells (human); test: IP-MS, NCI-H1703 lysate, Rep1
[9] = molecular target: HLA-A*01:01 with … (ROBO1) on cells (human); test: IP-MS, NCI-H1703 lysate, Rep1
[10] = molecular target: HLA-A*01:01 with … (UBR2) from cells (human); test: IP-MS, NCI-H1703 lysate, Rep1
[11] = molecular target: HLA-PEPTIDE target A*01:01_… (G2) on cells (human); test: IP-MS, NCI-H1703 lysate, Rep1
[12] = molecular target: off-target HLA-A*01:01_… (ICE1) on cells (human); test: IP-MS, NCI-H1703 lysate, Rep1
[13] = molecular target: off-target HLA-A*01:01_… (KDM7A) on cells (human); test: IP-MS, NCI-H1703 lysate, Rep1
[14] = molecular target: off-target HLA-A*01:01_… (PTS) on cells (human); test: IP-MS, NCI-H1703 lysate, Rep1
[15] = molecular target: HLA-A*01:01 with … (DSG3) from cells (human); test: IP-MS, NCI-H1703 lysate, Rep2
[16] = molecular target: HLA-A*01:01 with … (DSG4) from cells (human); test: IP-MS, NCI-H1703 lysate, Rep2
[17] = molecular target: HLA-A*01:01 with … (ERGIC3) from cells (human); test: IP-MS, NCI-H1703 lysate, Rep2
[18] = molecular target: HLA-A*01:01 with … (RBM4) from cells (human); test: IP-MS, NCI-H1703 lysate, Rep2
[19] = molecular target: HLA-A*01:01 with … (ROBO1) on cells (human); test: IP-MS, NCI-H1703 lysate, Rep2
[20] = molecular target: HLA-A*01:01 with … (UBR2) from cells (human); test: IP-MS, NCI-H1703 lysate, Rep2
[21] = molecular target: HLA-PEPTIDE target A*01:01_… (G2) on cells (human); test: IP-MS, NCI-H1703 lysate, Rep2
[22] = molecular target: off-target HLA-A*01:01_… (ICE1) on cells (human); test: IP-MS, NCI-H1703 lysate, Rep2
[23] = molecular target: off-target HLA-A*01:01_… (KDM7A) on cells (human); test: IP-MS, NCI-H1703 lysate, Rep2
[24] = molecular target: off-target HLA-A*01:01_… (PTS) on cells (human); test: IP-MS, NCI-H1703 lysate, Rep2
[25] = molecular target: HLA-A*01:01 with … (DSG3) from cells (human); test: IP-MS, NCI-H1703 lysate, Rep1 (peptide also 0 with W6/32)
[26] = molecular target: HLA-A*01:01 with … (DSG4) from cells (human); test: as above
[27] = molecular target: HLA-A*01:01 with … (DSG3) from cells (human); test: IP-MS, NCI-H1703 lysate, Rep2 (peptide also 0 with W6/32)
[28] = molecular target: HLA-A*01:01 with … (DSG4) from cells (human); test: as above

Substance	copies per cell of the peptide recovered by immunoprecipitation (copies per cell) [7]	copies per cell of the peptide recovered by immunoprecipitation (copies per cell) [8]	copies per cell of the peptide recovered by immunoprecipitation (copies per cell) [10]	copies per cell of the peptide recovered by immunoprecipitation (copies per cell) [12]	copies per cell of the peptide recovered by immunoprecipitation (copies per cell) [14]	copies per cell of the peptide recovered by immunoprecipitation (copies per cell) [17]	copies per cell of the peptide recovered by immunoprecipitation (copies per cell) [18]	copies per cell of the peptide recovered by immunoprecipitation (copies per cell) [20]	copies per cell of the peptide recovered by immunoprecipitation (copies per cell) [22]	copies per cell of the peptide recovered by immunoprecipitation (copies per cell) [24]	further results
W6/32 antibody	3360	16700	891	2660	2930	3350	16700	876	2740	2980	copies per cell of the peptide recovered by immunoprecipitation (copies per cell) [1]: 96; copies per cell of the peptide recovered by immunoprecipitation (copies per cell) [2]: 1000; copies per cell of the peptide recovered by immunoprecipitation (copies per cell) [3]: 6; copies per cell of the peptide recovered by immunoprecipitation (copies per cell) [4]: 91; copies per cell of the peptide recovered by immunoprecipitation (copies per cell) [5]: 0; copies per cell of the peptide recovered by immunoprecipitation (copies per cell) [6]: 0; copies per cell of the peptide recovered by immunoprecipitation (copies per cell) [9]: 554; copies per cell of the peptide recovered by immunoprecipitation (copies per cell) [11]: 3790; copies per cell of the peptide recovered by immunoprecipitation (copies per cell) [13]: 2; copies per cell of the peptide recovered by immunoprecipitation (copies per cell) [15]: 0; copies per cell of the peptide recovered by immunoprecipitation (copies per cell) [16]: 0; copies per cell of the peptide recovered by immunoprecipitation (copies per cell) [19]: 517; copies per cell of the peptide recovered by immunoprecipitation (copies per cell) [21]: 4040; copies per cell of the peptide recovered by immunoprecipitation (copies per cell) [23]: 2
control IgG antibodies (antibody)	25	113	6	35	32	15	79	4	21	25	copies per cell of the peptide recovered by immunoprecipitation (copies per cell) [25]: 0; copies per cell of the peptide recovered by immunoprecipitation (copies per cell) [26]: 0; copies per cell of the peptide recovered by immunoprecipitation (copies per cell) [27]: 0; copies per cell of the peptide recovered by immunoprecipitation (copies per cell) [28]: 0
